Assay results as given in a protein production outcome set (Wang et al. 2014).

Assay: label from the status in PepcDB records
With “RNVWVVAELDEQGVSEASLQMLTPARRIADKLGESVVGVIAGPPGSSQLAVEMVERGADEVIVVEHERLSEYYPDVVGSVIVELSLKYKPSVILFAATARGREMAPYVANTLKTGITADCTDFDVDPKTRDVLLIRPPFSAIMLAYIRTPFRRPQIGTARPNVFPLPERQPGRQGRIVREEVEPPEPMARLVNRVRIPRSEVP” the protein production was “failed”.
With “RPAIRKRLLKPKVLDSSPRALVGHRAEVLEDVGATSGQVRLDGSIWSARSMDPTHTFAEGEIVSVIDIQGTTAIVWKEA” the protein production was “not failed”.
For “RPHVVKVYSEDGACRSVEVAAGATARHVCEMLVQRAHALSDETWGLVECHPHLALERGLEDHESVVEVQAAWPVGGDSRFVFRKNFA”, the protein production was “not failed”.
In the case of “RPQTTDNWQNTEIEGIDIMLAVDVSTSMLAEDLKPNRLEAAKQVASEFINGRPNDNIGLTIFAGESFTQCPLTVDHGVLLNLFNSIKGDIAQRGLIEDGTAIGMGIANAVTRLKDSKAKSKVIILLTDGSNNRGDISPLTAAEIAKQFGIRIYTIGVGTNGTAPYPMQTYAGTQYVNVPVEIDEKTLTEIAGTTNGNYFRATSNSKLKEVYQEIDKLEKTKL”, the protein production is reported as “failed”.
For “RQLSRHTYAVRALTDIDDFNAQFNTDFDDEEVDTIGGLIMQTFGYLPKRGEEIILKNLQFKVTSADSRRLIQLRVTVPDEHLAEMNNVDEKSE”, the protein production was “failed”.
In the case of “RQVQKELGDVLVRLHNPVVLTPTTVQVTWTVDRQPQFIQGYRVMYRQTSGLQATSSWQNLDAKVPTERSAVLVNLKKGVTYEIKVRPYFNEFQGMDSESKTVRTTEE”, the protein production is reported as “not failed”.
For “RRHYIDAFGTGPGFAAVASFYPGCFRIKPPGGRDYDLVGPDIAQPLLLLMGDADTETPAAECVDKLTPLKAAGAPVEWHVYPSTTHCWDCQQLDGRSKTDVRGNHVAYRYQPDVVADSERRLFAFLER”, the protein production was “failed”.
In the case of “RSAEALFEKAVTPSDVGKLNRLVIPKHHAEKHFPLPSSNVSVKGVLLNFEDVNGKVWRFRYSYWNSSQSYVLTKGWSRFVKEKNLRAGDVVSFSRSNGQDQQLYIGWKSRSGSDLDA”, the protein production is reported as “not failed”.
In the case of “RSLQLDKLVNEMTQHYENSVPEDLTVHVGDIVAAPLPTNGSWYRARVLGTLENGNLDLYFVDFGDNGDCPLKDLRALRSDFLSLPFQAIECSLARIA”, the protein production is reported as “not failed”.
With “RSMEDVRLHRKEKGDAYSFNWSLKIEADFQLPFDPTHTSMEGLNLNLDQEPQVLAANLRKAFSGIVAGNVKAEGIREIECKGPFSIHGDPVLMKKLDKLLQDFVEQHRMKLPGGSDYEPCYRIAHP” the protein production was “failed”.
In the case of “RTRALYDLGRELASALTASQIIETAVGRLEPLFRAKVMLFIPNSEDRLRAATETGNDADAGVAQWVFDNQQPAGLGTNTLPSNAALYVPLKAPMRVRGVIALLPEDAVHPFLPEQQRLLETCAAQIALALERVHYVEVAQDAIV”, the protein production is reported as “failed”.
In the case of “RTVAQNASETTVSYDTDTAVLSEADVLRIALSENATVKVADMDVRKQEYARRAARADLFPKVDLNGVYSHTLKKQVLYIDMPGFSSSEGIEMGRTHNTQGGVNVSMPLVSAQLWKSIAMTGEQLDLALEKARSSRIDLVAEVKKAYLSVLLAEDSYGVFKRSYDNALANYKNISDKFDRGLVAEYDKIRANVQVRNIEPNLLQAQNSVALALWQLKVLMSMEVETPIRLSGSLSDYKEQVYTGYFAADTLISNNSSLRQLDIQRRLAVSADKLNKYSFLPTLNLGGQYTYSLNSNDIKFWGEGQR”, the protein production is reported as “not failed”.
In the case of “RVKESITRTSRAPSVATVGSICDLNLKIPEINSSDMSAHVTSPSGRVTEAEIVPMGKNSHCVRFVPQEMGVHTVSVKYRGQHVTGSPFQFTVGPLGEGG”, the protein production is reported as “not failed”.
With “RYPTNNFGNCTGCSATFSVLKKRRSCSNCGNSFCSRCCSFKVPKSSMGATAPEAQRETVFVCASCNQTLSK” the protein production was “not failed”.
With “SAAVGAEARGAWCVPCLVSLDTLQELCRKEKLTCKSIGITKRNLNNYEVEYLCDYKVVKDMEYYLVKWKGWPDSTNTWEPLQNLKCPLLLQQFSNDKHNYLSQVITSEEAERRGQFYDNKGITYLFDLDYESDEFTVDAARYGNVSHFVNHSCDPNLQVFNVFIDNLDTRLPRIALFSTRTINAGEELTFDYQMKGSGDISSDSIDHSPAKKRVRTVCKCGAVTCRGYLN” the protein production was “failed”.
In the case of “SADEAPSSADEAPSSAVEQIVAPVDFSDLTEVALRHVAQIAPLYDVPVTLVHVVEDPTMPSVYEVNASAVRARAAEQRAEEALQSLGAPIEETGVSVSYLVHRGQTTSTVVEATGHRDTLTVMGTKGLSGLRRVMLGSVTEAVIRASDGPVLAVPASAQEASPANE”, the protein production is reported as “failed”.
For “SADSEADKPLRKISAAFKKLAIIVNSPNPEVPVTQFSHACSLVSPLFGCLGIAFKFAEMDYVAKVDDLVRASSSISTLVVMMDKDIEADCVRKAGSHTRNLLRVKRGLDMVKVLFEQIIASEGDNSLKDPATKSYAQVFAPHHGWAIRKAVSLGMYALPTRAHLLNMLKEDEAAAKIHMQSYVNSSAPLITYLDNLFLSKQLGIDW”, the protein production was “failed”.
For “SAEASSANLGSGCEEKRHEGSSSESVPPGTTISRVKLLDTMVDTFLQKLVAAGSYQRFTDCYKCFYQLQPAMTQRIYDKFIAQLQTSIREEISDIKEEGNLEAVLNALDKIVEEGKVRKEPAWCEAQRCRVQQRCSLCVQAGGQRGSEETQALPVSMAGSPSPLPGSPGAQEGGV”, the protein production was “failed”.
With “SAKDPLAEAGLHFDELNKLRVLEPDVSQKTTELKEECEEFVDKIGQFQKIVGGLIELVDELAKEAETEKMKAIGARNLLKSVEKQREAQHQQLQALIAEKKMQLERYRIEYEALQKVEAEQSEFIDQFILQK” the protein production was “failed”.
For “SAMAQKEEGHEAAAAEAKKETDLAHVDQVETFVGKEKYYVVKGTDKKGTALYVWVPADKKAKILSKEAKEGISEDKAAKIIKDEGLVSKQKEVHLAREGNVLLWEVTYLDKEGQYSLSYVDFTTGKILKNITP”, the protein production was “not failed”.
With “SATERADSADFRTIIRNKIPLMDVRAPVEFGKGAFDLSINYPLMNNDERADVGICYKQNGQEAAIKLGNALVSGQSKARRLTQWQTFARENPQGYLYCFRGGLRSQTVQRWLKESGINYPLITGGYKALRQFLLNELEQLALH” the protein production was “failed”.
With “SCGDKMNKNTGALEFDSIQVNETAHLFGDTAKPACNLTINFAYPVKSTDNKLKDSLNSYFIAACFGEGYIGEKPAQVVKEYTEHYVKEYRTDLEPMYAEDEKNKESEGSIGAWYSYYKGIESHVQLYYKNLLVYRINYNEYTGGAHGIYMTTFLNMDLINLRPLKLDDIFTGDYKEALTDLLWNQLMADKKVTTHEALEDMGYGSTGDIAPTENFYLDKDGITFYYNVYDITPYAMGPVEIKIPYEMMEHMLGSNPIIGEMKSK” the protein production was “not failed”.
In the case of “SDPLYVPDPDPTKFPVNRNLTRKAGYLNARNKTGLVSSTWDRQFYFTQGGNLMSQARGDVAGGLAMDIDNCSVMAVDCEDRRYCFQITSFDGKKSSILQAESKKDHEEWICTINNISKQIYLSENPEETAARVNQSALEAVTPSPSFQQRHESLRPAAGQSRPPTART”, the protein production is reported as “failed”.
For “SEEEEYEQIPQENPPEELSQDPVLELSGGLREKEQKTPRRLRLILMGKTGSGKSATGNSILGRDVFESKLSTRPVTKTSQRRSREWAGKELEVIDTPNILSPQVSPEVADAICQAIVLSAPGPHAVLLVTQLGRFTDEDQQVVRRLQEVFGVGVLGHTILVFTRKEDLAGGSLEDYVRETNNQALAWLDVTLARRHCGFNNRAQGEEQEAQLRELMEKVEAIMWENEGDYYSNKAYQYTQQNFRLKELQERQVSQGQGSEDVPGEESWLEGLSQIQKESEEAHRCLLGKADL”, the protein production was “not failed”.
For “SELSQLLNEIRANYEKILTRNQIETVLSTRIQLEEDISKKMDKDEEALKAAQAELKEARRQWHHLQVEIESLHAVERGLENSLHASEQHYQMQLQDLETVIEGLEKELQEVRRGIEKQLQEHEMLLNTKMRLEQEIATYRHLLEKEEIRYYGCIQGGKKDKKPTTSRVGFVLPSAIINEISFTTKVPQKYENENVETVTKQAILNGSIVKESTEAHGTIQTEKVDEVIKEWEGSFFKDNPRLRKKSVSLRFDLHLAATDEGCLETKQDNLPDIEVRLIMRRSCSIPSIKPPSTAN”, the protein production was “not failed”.
In the case of “SESQSEEIDCNDKDLFKAVDAALKKYNSQNQSNNQFVLYRITEATKTVGSDTFYSFKYEIKEGDCPVQSGKTWQDCEYKDAAKAATGECTATVGKRSSTKFSVATQTCQITPAEGPVVTAQYDCLGCVHPISTQSPDLEPILRHG”, the protein production is reported as “not failed”.
With “SFGVKDAIFKIKRSIAGTDSSDSTAYTTASESSPQLKDSHNPFRNKTTSERTIVEEGSLPPVRLNGYLPSTKNKLLTPEMCDEIRTLMPTRIQLYTEWNLLYSLEQHGSSLHSLYSNVAPDSKEFRRVGYVLVIKDRKNGIFGAYSNEAFHPNEHRQYTGNGECFLWKLDKVPDVNISEKEESEQEGKEGKEEGDKEERWRFSGYPYTGVNEFAIYCTSEFLSMGAGDGHYGLLCDDGLLHGVSNPCQTYGNEVLSKEGKKFSIVALEVWRVG” the protein production was “not failed”.
For “SFPNRRIVTTVFNDEGIQFLVTRYIKALNPPQQLLDIFLHNSNATFDLIARFVSLIPFVPNTPDENDGSDIWMTSEHCISLAIGNKEEHAILLCNFFLYFGKKALVLLGTSVLEGHVAYVVTQETNEYLLWNPSTGQCYKQFDPFCPLKSVDCLFDDRNVWFNIQQNNTPMAVFFDYSKESFWKQLLPKNVQGTKIQSIQVTGFPIQMPYIDVQSIIDAVYQTGIHSAEFPQTEFALAVYIHPYPNNILSVWVYLASLVQHQ”, the protein production was “not failed”.
With “SGESIPLAAPVPVEQAVLETFFSHLGIFSYDKAKDNVEKEREANKSAGGSWLSLLAALAHLAAAEKVYHSLTYLGQKLGGQSFFSRKDSIRTIYTSLHNELKKVVAGRGAPGGTAPHVEELLPHLSEQLCFFVQARMEIADFYEKMYALSTQKFINTEELVSTLDTILRKYSSRFHHPILSPLESSFQLEVGVLSHLLKAQAQISEWKFLPSLVTLHNAHTKLQSWGQTFEKQRETKKHLFGGQSQKAVQPPHLFLWLMKLKTMLLAKFSFYFHEALSRQTTASEMKALTAKANPDLFGKISSFIRKYDAANVSLIFDNRGSESFQGHGYHHPHSYREAPKGVDQYPAVVSLPSDRPVMHWPNVIMIMTDRASDLNSLEKVVHFYDDKVQSTYFLTRPEPHFTIVVIFESKKSERDSHFISFLNELSLALKNPKVFASLKPGSKG” the protein production was “not failed”.
For “SGMLERLPLCGKAFADMMGKVDVWKWCNLSEFIVYYESFTNCTEMEANVVGCYWPNPLAQGFITGIHRQFFSNCTVDRVHLEDPPDEVLIPLIVIPVVLTVAMAGLVVWRSKRTDTLL”, the protein production was “failed”.
With “SGQAYIGTYPNGDKIFVKINTTPILAALAKEQIAPQLLWAKRLGNGDMMSAQEWLDGRLLTRADMNSKQIIQVLLQMHKSKPLVNQLLQLNYKVETPLDLLLSWERSAPYQISENAYLQSVVAEMKRNLPDFKKDYATIVHGDVRHSNWVITTSGLVYLVDWDSVRVTDRMYDVAHILSHYIPHTRWAEWLSYYGYKQNTKVFQKIKWYGQLSYLSQILKYYENR” the protein production was “failed”.
For “SHLVVESFPSYRDVTLFEGKRVSFYKRAQILVADTWSVLEGKGDGCFKDISSITMFADYRLPQVLAHLGALKYSDDLLKKLLKGEMLSYGDRQEVEIRGCSLWCVELIRDCLLELIEQKGEKPNGEINSILLDYYLWDYAHDHREDMKGIPFHRIRCIYY”, the protein production was “failed”.
In the case of “SIDAICAYFYAGYDVPRVLNEGGWFFLENILLIKSVGGRKPPLTDNKLRIKFLQTTKMTHVPNREPSSLFRFAAFSMIENKTINSSTVHDAYGIVVRVGNITRPDFVPQASENTILSQFLEFEIKNSWGKSLICVASGYTCELFVQLWRELGLELGYHWNFGMNPTICVLRFWNVDDHEGRQCLISHNGASKITFNQSYPEINMDRVRTQFLQRMQTPELGEVVDEN”, the protein production is reported as “not failed”.
